Laboratory results taken from US20220153851A1 (Five Prime, published 2022).

Assays:
[1] = target: T1, human CSF1R on CSF1R (SEQ ID NO: 2)-transfected CHO cells (human, UniProt P07333 20-972); assay: cell-based or functional assay
[2] = target: T1, human CSF1R on CSF1R (SEQ ID NO: …); assay: cell-based or functional assay; remark: listed apart in the source
mCSF1R ECD-Fc = target: T2, mCSF1R ECD-Fc (mouse); assay: ELISA, plate coated with mCSF1R ECD-Fc, detection anti-human kappa-HRP, A450
T2 construct: also called mouse CSF1R ECD
T2 sequence (chain, as listed by the source limits assumed): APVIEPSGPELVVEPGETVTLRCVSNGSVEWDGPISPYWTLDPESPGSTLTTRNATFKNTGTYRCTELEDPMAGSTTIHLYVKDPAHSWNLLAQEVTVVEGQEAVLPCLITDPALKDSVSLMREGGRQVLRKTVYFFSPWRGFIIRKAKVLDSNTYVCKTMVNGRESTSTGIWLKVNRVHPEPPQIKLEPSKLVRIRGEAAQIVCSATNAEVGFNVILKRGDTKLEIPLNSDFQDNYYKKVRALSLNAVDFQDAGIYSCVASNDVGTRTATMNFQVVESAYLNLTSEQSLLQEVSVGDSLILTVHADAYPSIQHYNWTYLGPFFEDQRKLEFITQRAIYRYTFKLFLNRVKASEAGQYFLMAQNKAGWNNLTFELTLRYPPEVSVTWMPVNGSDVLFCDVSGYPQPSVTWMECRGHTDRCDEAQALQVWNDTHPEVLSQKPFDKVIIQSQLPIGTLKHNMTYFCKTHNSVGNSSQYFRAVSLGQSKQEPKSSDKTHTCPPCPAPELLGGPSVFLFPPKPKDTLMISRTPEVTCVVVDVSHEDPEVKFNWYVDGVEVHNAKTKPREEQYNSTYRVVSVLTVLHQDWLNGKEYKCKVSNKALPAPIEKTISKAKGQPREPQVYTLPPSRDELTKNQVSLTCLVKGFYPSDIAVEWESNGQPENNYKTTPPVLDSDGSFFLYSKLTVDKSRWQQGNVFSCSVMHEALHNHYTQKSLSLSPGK
Description: (§1) Ninety-six well clear-bottom ELISA plates were coated overnight with 1 μg/ml recombinant hCSF1R ECD.506-Fc (SEQ ID NO: 6; FivePrime Therapeutics) or Human M-CSF R Fc Chimera (R&D Systems) in PBS. The next morning, wells were washed four times with 0.05% Tween20 in PBS (PBST) and blocked with Blocker-Blotto (Pierce). Fifty μl of 0.5× serial dilutions of the humanized antibody or parental chimeric antibody, beginning with 2000 ng/ml, diluted 1:1 in Blocker-Blotto were added to the CSF1R-coated wells. After incubation at room temperature (RT) for 90 min, wells were washed four times with PBST, and a 1:5000 dilution of a peroxidase-conjugated Goat anti-Human kappa Light chain antibody (Sigma) in Blocker-Blotto was added to each well. After incubation at RT for 60 min, wells were washed four times with PBST, and 50 μl o-phenylenediamine dihydrochloride peroxidase substrate (Sigma) was added to each well. After incubation at RT for 30 min, A450 values of each well were read directly on a SpectraMaxPlus spectrophotometer with SoftMaxPro software (Molecular Devices).
(§2) The binding curve for each humanized antibody binding to mouse CSF1R ECD was determined as described above for human CSF1R, except the wells of the clear-bottom ELISA plates were coated overnight with 2 μg/ml recombinant mCSF1R ECD-Fc (FivePrime Therapeutics, SEQ ID NO: 93).

hCSF1R ECD.506-Fc = target: T3, hCSF1R ECD.506-Fc (human); assay: ELISA, plate coated with human CSF1R ECD-Fc
T3 construct: also called human CSF1R ECD-Fc fusion protein; human CSF1R ECD
T3 sequence (chain, as listed by the source limits assumed): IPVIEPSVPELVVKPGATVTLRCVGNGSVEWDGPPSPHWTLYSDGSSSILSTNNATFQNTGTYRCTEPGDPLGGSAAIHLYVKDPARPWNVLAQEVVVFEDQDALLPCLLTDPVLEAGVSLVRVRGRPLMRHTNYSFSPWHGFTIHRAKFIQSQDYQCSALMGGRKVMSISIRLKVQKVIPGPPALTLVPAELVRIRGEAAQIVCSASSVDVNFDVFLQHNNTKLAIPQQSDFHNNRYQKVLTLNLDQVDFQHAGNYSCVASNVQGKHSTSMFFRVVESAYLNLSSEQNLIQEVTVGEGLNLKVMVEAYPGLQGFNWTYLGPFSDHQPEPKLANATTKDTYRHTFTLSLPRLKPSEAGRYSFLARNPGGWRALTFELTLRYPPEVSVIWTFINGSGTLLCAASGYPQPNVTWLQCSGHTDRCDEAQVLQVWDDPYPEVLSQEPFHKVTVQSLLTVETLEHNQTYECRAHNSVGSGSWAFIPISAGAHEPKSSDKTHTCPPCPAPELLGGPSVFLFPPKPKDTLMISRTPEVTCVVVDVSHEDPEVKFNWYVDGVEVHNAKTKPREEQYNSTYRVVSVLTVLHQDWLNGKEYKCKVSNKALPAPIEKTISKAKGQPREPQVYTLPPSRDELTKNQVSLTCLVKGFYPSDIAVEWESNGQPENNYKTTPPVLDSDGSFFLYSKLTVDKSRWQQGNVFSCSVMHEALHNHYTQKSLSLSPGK
Description: as §1

cynoCSF1R ECD-Fc [3] = target: T4, cynoCSF1R ECD-Fc (cynomolgus); assay: competition ELISA, blocking of human CSF1 binding to cynoCSF1R ECD-Fc; blocking of human CSF1 binding to cynoCSF1R ECD
T4 construct: also called cynomolgus CSF1R ECD
T4 sequence (chain, as listed by the source): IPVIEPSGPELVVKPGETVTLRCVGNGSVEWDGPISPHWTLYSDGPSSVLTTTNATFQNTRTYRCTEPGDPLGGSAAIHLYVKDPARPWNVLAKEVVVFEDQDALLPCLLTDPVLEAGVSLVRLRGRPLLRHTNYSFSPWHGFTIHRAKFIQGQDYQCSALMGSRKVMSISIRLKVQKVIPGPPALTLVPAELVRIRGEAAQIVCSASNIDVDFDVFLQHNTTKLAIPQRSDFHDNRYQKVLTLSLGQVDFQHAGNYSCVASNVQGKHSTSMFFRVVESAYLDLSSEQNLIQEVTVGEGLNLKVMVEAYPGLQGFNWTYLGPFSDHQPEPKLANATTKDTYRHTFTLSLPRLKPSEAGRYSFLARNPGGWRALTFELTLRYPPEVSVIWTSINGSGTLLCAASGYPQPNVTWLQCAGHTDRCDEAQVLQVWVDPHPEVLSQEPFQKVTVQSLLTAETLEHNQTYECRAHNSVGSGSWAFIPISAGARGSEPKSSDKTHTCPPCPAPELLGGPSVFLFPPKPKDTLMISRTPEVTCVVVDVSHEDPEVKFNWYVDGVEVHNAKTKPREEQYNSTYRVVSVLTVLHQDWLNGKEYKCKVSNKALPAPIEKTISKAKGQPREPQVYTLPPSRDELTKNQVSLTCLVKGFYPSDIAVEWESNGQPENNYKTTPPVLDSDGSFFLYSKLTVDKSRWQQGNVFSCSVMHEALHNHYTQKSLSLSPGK
Description: (§3) The humanized antibodies, along with the parental chimeric antibodies (cAbs), were tested for their ability to block human CSF1 binding to human and cynomolgus CSF1R ECD, as follows.
Recombinant Human CSF1 (M-CSF; R&D Systems) was biotinylated using an NH₂-Biotin Labeling Kit (Dojindo Molecular Technologies). One hundred μl of 1 μg/ml biotinylated CSF1 in PBST/0.1% BSA was added to the wells of Reacti-Bind Streptavidin coated plates (Pierce) pre-blocked with SuperBlock blocking buffer (Pierce) according to the manufacturer's instructions. Fifty μl of 0.5× serial dilutions of the humanized antibody or parental chimeric antibody, beginning with 2000 ng/ml, was incubated with 50 ng/ml hCSF1R ECD.506-Fc (SEQ ID NO: 6; FivePrime Therapeutics) or 50 ng/ml cynoCSF1R ECD-Fc (FivePrime Therapeutics, SEQ ID NO: 8, but without the 19 amino acid leader sequence) in 100 μl PBST/0.1% BSA for 90 min at RT, after which the admix was transferred to one or more wells of a ligand-coated plate. After 90 min at RT, wells were washed with PBST, and a 1:5000 dilution of an Fc-fragment-specific peroxidase-conjugated goat anti-human IgG (Jackson Immuno Research) in PBST/0.1% BSA was added to each well. […] After incubation at RT for 30 min, A450 values of each well were read directly on a SpectraMaxPlus spectrophotometer with SoftMaxPro software (Molecular Devices).

cynoCSF1R ECD-Fc [4] = target: T4, cynoCSF1R ECD-Fc; assay: ELISA, plate coated with cynoCSF1R ECD-Fc
Description: as §1
as §2, with “cynomolgus” for “mouse”, “cynoCSF1R” for “mCSF1R”, “8, but without the 19 amino acid leader sequence).” for “93).”

cynoCSF1R ECD-Fc [5] = target: T4, cynoCSF1R ECD-Fc; assay: competition ELISA, blocking of human IL34 binding to cynoCSF1R ECD-Fc
cynoCSF1R ECD-Fc [6] = target: T4, cynoCSF1R ECD-Fc; assay: competition ELISA, blocking of human CSF1 binding to cynoCSF1R ECD-Fc
Description: as §3
Recombinant Human CSF1 (M-CSF; R&D Systems) was biotinylated using an NH₂-Biotin Labeling Kit (Dojindo Molecular Technologies). One hundred μl of 1 μg/ml biotinylated CSF1 in PBST/0.1% BSA was added to the wells of Reacti-Bind Streptavidin coated plates (Pierce) pre-blocked with SuperBlock blocking buffer (Pierce) according to the manufacturer's instructions. Fifty μl of 0.5× serial dilutions of the humanized antibody or parental chimeric antibody, beginning with 2000 ng/ml, was incubated with 50 ng/ml hCSF1R ECD.506-Fc (SEQ ID NO: 6; FivePrime Therapeutics) or 50 ng/ml cynoCSF1R ECD-Fc (FivePrime Therapeutics, SEQ ID NO: 8, but without the 19 amino acid leader sequence) in 100 μl PBST/0.1% BSA for 90 min at RT, after which the admix was transferred to one or more wells of a ligand-coated plate. After 90 min at RT, wells were washed with PBST, and a 1:5000 dilution of an Fc-fragment-specific peroxidase-conjugated goat anti-human IgG (Jackson Immuno Research) in PBST/0.1% BSA was added to each well. After incubation at RT for 60 min, wells were washed with PBST/0.1% BSA, and o-phenylenediamine dihydrochloride peroxidase substrate (Sigma) was added to each well. After incubation at RT for 30 min, A450 values of each well were read directly on a SpectraMaxPlus spectrophotometer with SoftMaxPro software (Molecular Devices).

[7] = target: T1, human CSF1R on CSF1R (SEQ ID NO: …); assay: cell-based or functional assay; remark: listed apart in the source
hCSF1R ECD.506 = target: T5, hCSF1R ECD.506 (human, UniProt P07333 20-506); assay: SPR Biacore T100, antibody captured on anti-human IgG, hCSF1R ECD.506 as analyte, 1:1 model
T5 construct: also called human CSF1R ECD
T5 sequence (P07333 20-506): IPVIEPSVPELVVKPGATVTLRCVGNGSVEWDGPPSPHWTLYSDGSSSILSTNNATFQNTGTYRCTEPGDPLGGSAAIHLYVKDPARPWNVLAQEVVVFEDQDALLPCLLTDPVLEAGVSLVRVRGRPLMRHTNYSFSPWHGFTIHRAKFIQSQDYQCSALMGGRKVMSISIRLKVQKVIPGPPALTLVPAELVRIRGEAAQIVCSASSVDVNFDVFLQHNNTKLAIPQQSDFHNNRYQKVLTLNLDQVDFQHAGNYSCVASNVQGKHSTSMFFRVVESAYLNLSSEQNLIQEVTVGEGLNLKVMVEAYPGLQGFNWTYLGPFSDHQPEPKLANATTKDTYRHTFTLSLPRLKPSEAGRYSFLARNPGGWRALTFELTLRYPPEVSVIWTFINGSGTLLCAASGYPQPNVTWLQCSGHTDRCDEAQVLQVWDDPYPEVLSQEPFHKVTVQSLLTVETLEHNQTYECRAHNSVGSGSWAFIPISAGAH
Description: The kₐ, kd, and KD for binding to human CSF1R ECD was determined for each of the humanized antibodies as follows.
Binding kinetics of anti-CSF1R humanized antibodies to CSF1R ECD was determined using Biacore T100 Surface Plasmon Resonance (SPR) (GE Healthcare Life Sciences, Piscataway, N.Y.). Each of the humanized anti-CSF1R antibodies was captured on a CM5 sensor chip immobilized with anti-Human IgG antibody using the Human antibody capture kit (GE Healthcare Life Sciences, Piscataway, N.Y.) at 150 RU so that the Rmax value for hCSF1R ECD.506 (SEQ ID NO: 5) binding was 100 RU. Rmax values of less than 150 RU are recommended for accurately determining kinetic values. […] The association constant, dissociation constant, affinity, and binding capacity of each of the Fabs for human CSF1R ECD was calculated using the Biacore T100 Evaluation software package using the 1:1 binding model.

[8] = target: T1, human CSF1R on CSF1R (SEQ ID NO: …); assay: cell-based or functional assay; remark: listed apart in the source

T1 sequence (P07333 20-972): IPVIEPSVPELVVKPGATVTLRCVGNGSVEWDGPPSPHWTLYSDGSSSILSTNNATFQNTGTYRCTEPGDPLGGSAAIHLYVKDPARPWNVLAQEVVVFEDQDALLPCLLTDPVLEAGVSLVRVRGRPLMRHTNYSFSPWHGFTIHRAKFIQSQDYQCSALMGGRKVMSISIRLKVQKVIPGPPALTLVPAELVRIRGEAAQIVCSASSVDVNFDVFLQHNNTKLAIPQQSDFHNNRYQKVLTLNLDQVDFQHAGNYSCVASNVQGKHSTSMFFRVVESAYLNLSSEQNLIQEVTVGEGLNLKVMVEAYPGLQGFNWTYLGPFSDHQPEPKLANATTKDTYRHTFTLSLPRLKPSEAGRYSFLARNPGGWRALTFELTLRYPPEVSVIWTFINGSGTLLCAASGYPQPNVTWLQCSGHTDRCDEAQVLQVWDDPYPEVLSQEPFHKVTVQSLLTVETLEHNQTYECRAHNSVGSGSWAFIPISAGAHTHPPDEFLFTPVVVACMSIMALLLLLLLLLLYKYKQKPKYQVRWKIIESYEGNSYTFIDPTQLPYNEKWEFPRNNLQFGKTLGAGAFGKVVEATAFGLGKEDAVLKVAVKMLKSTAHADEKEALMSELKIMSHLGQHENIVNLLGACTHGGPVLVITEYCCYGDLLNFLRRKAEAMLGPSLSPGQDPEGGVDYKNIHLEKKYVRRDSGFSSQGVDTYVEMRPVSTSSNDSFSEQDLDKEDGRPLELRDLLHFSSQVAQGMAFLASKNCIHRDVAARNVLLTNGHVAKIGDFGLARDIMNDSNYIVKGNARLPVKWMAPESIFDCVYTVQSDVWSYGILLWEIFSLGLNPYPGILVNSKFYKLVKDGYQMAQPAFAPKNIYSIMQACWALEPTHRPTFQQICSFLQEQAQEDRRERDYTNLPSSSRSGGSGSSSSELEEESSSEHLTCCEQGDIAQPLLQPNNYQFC

IC50, inhibition of CSF1-induced CSF1R phosphorylation (head prints 'Human CSF1/Human CSF1R ECD IC50') [1] | IC50, inhibition of IL34-induced CSF1R phosphorylation (head prints 'Human IL34/Human CSF1R ECD IC50') [1] | IC50 (read off the curve), CSF1-induced CSF1R phosphorylation [2] | binding result (mCSF1R ECD-Fc) | EC50 (hCSF1R ECD.506-Fc) | IC50 (cynoCSF1R ECD-Fc [3]) | EC50 (cynoCSF1R ECD-Fc [4]) | IC50 (cynoCSF1R ECD-Fc [5]) | IC50 (cynoCSF1R ECD-Fc [6]) | IC50 (read off the curve), IL34-induced CSF1R phosphorylation [7] | Kd (hCSF1R ECD.506) | koff (hCSF1R ECD.506) | kon (hCSF1R ECD.506) | CSF1 blocking IC50 (ligand-induced CSF1R phosphorylation in CHO cells) [8] | IL34 blocking IC50 (ligand-induced CSF1R phosphorylation in CHO cells) [8] | Binder
0.307 mg/L | 0.312 mg/L | ~0.3 mg/L | no binding (tested: 2000 ng/ml) | 0.0114 mg/L | 0.022 mg/L | 0.0152 mg/L | 0.0295 mg/L | – | – | – | – | – | – | – | cAb 0301 (antibody, human IgG4 S228P, kappa, V domains shown) VH: EVQLQQSGPELVRPGASVKMSCKASGYTFTDNYMIWVKQSHGKSLEWIGDINPYNGGTTFNQKFKGKATLTVEKSSSTAYMQLNSLTSEDSAVYYCARESPYFSNLYVMDYWGQGTSVTVSS VL: NIVLTQSPASLAVSLGQRATISCKASQSVDYDGDNYMNWYQQKPGQPPKLLIYAASNLESGIPARFSGSGSGTDFTLNIHPVEEEDAATYYCHLSNEDLSTFGGGTKLEIKR
0.291 mg/L | 0.343 mg/L | – | no binding (tested: 2000 ng/ml) | 0.0131 mg/L | – | 0.0216 mg/L | 0.0504 mg/L | 0.0325 mg/L | ~0.4 mg/L | 0.44 nM | 0.00054 s⁻¹ | 1.22e+06 M⁻¹ s⁻¹ | 0.127 mg/L | 0.338 mg/L | h0311-L0H1 (antibody, human IgG4 S228P, kappa, V domains shown, also called Ab13; huAb 0311-L0H1) VH: QVQLVQSGAEVKKPGSSVKVSCKASGYIFTDYNMHWVRQAPGQGLEWMGEINPNNGVVVYNQKFKGRVTITVDKSTSTAYMELSSLRSEDTAVYYCTRALYHSNFGWYFDSWGQGTLVTVSS VL: EIVLTQSPATLSLSPGERATLSCKASQSVDYDGDSHMNWYQQKPGQAPRLLIYTASNLESGIPARFSGSGSGTDFTLTISSLEPEDFAVYYCQQGNEDPWTFGQGTKVEIKR
